B1: Bilayer HEX-D3-ASA (designed binder)
chain: DLGKKLLQAARAGQLDEVRELLKAGADVNAKDQEGITPLHVAAHQGHLEIVEVLLKAGADVNAKDVWGRTPLHLAAWRGHLEIVEVLLKAGADVNAKDHAGATPLHAAALSGHLEIVEVLLKAGADVNAQDKSGKTPADLAARAGHQDIAEVLQKAAGGGSGGGSGGGSGGGSDLGKKLLEAARAGQDDEVRELLKAGADVNAKDYFSHTPLHLAARNGHLKIVEVLLKAGADVNAKDFAGKTPLHLAANEGHLEIVEVLLKAGADVNAQDIFGKTPADIAADAGHEDIAEVLQKAAGGGSGGGSGGGSGGGSGELKAIAQELKAIAKELKAIAWELKAIAQGAGGGGSGGGSGGGSGGGSDLGKKLLQAARAGQLDEVRELLKAGADVNAKDQEGITPLHVAAHQGHLEIVEVLLKAGADVNAKDVWGRTPLHLAAWRGHLEIVEVLLKAGADVNAKDHAGATPLHAAALSGHLEIVEVLLKAGADVNAQDKSGKTPADLAARAGHQDIAEVLQKAAGGGSGGGSGGGSGGGSDLGKKLLQAARAGQLDEVRELLKAGADVNAKDQEGITPLHVAAHQGHLEIVEVLLKAGADVNAKDVWGRTPLHLAAWRGHLEIVEVLLKAGADVNAKDHAGATPLHAAALSGHLEIVEVLLKAGADVNAQDKSGKTPADLAARAGHQDIAEVLQKAA
B2: HEX-D3-ASA (designed binder)
chain: DLGKKLLEAARAGQDDEVRELLKAGADVNAKDYFSHTPLHLAARNGHLKIVEVLLKAGADVNAKDFAGKTPLHLAANEGHLEIVEVLLKAGADVNAQDIFGKTPADIAADAGHEDIAEVLQKAAGGGSGGGSGGGSGGGSGELKAIAQELKAIAKELKAIAWELKAIAQGAGGGGSGGGSGGGSGGGSDLGKKLLQAARAGQLDEVRELLKAGADVNAKDQEGITPLHVAAHQGHLEIVEVLLKAGADVNAKDVWGRTPLHLAAWRGHLEIVEVLLKAGADVNAKDHAGATPLHAAALSGHLEIVEVLLKAGADVNAQDKSGKTPADLAARAGHQDIAEVLQKAA

Key:
human serum albumin = human serum albumin (human, UniProt P02768 25-609); test: ELISA
mouse serum albumin = mouse serum albumin (mouse, UniProt P07724 25-608); test: ELISA
Sequence of mouse serum albumin (P07724 25-608): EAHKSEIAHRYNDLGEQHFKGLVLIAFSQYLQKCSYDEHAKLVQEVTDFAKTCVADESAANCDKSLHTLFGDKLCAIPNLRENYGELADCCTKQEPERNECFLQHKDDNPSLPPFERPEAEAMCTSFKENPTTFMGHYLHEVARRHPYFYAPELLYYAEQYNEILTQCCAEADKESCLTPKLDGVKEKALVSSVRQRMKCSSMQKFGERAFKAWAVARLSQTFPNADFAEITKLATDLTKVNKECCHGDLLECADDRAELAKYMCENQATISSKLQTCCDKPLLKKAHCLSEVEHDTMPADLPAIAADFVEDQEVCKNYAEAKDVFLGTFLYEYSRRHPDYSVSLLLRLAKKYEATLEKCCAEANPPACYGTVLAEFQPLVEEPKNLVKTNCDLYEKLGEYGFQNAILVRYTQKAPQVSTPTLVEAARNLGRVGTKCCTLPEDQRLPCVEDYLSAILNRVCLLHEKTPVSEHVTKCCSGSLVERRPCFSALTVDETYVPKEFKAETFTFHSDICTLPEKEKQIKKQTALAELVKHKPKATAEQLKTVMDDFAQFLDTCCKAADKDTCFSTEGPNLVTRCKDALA

Binder	Kd (human serum albumin)	Kd (mouse serum albumin)
B1	7.9 nM	124 nM
B2	2.82 nM	24.4 nM

From publication PMC12522135 (2025)
